Source: patent publication US11840557B2, “Wnt7 variants capable of activating g-protein coupled receptor (Gpr)124/Reck/frizzled/lipoprotein receptor-related protein (LRP)-mediated Wnt signaling” (UNIVERSITÉ LIBRE DE BRUXELLES, priority 2018, dated 2023)
Ends that are not written are not given here.

Columns and labels:
Reck-CK-Fc = test: Isothermal titration calorimetry (ITC) of synthetic Wnt linker peptides into recombinant Reck-CK-Fc; format: binding
Description: Reck-CK-Fc fusion proteins were recovered in serum-free FreeStyle 293 Expression Medium (Thermo Fisher Scientific, Waltham, Mass.) from the supernatant of HEK293T cell cultures 72 h post transfection with Lipofectamine 2000 (Life Technologies, Carlsbad, Calif.). After collection, the supernatants were either concentrated 50 times by centrifugation (GE Healthcare, Little Chalfont, UK) or submitted to Protein G affinity purification (Protein G Sepharose 4 Fast Flow, Sigma-Aldrich, St. Louis, Mo.). Protein purity was assessed using Coomassie blue staining after PAGE. Synthetic Wnt linker peptides were obtained from Chinapeptide Co., Ltd at purities over 90%.
ITC titrations were carried out on an Affinity ITC (TA Instruments). Prior to the measurement, Reck-CK-Fc and all Reck-CK-Fc fusions were dialyzed to Tris-NaCl buffer (50 mM Tris pH8, 300 mM NaCl). In each case Wnt-derived peptides were prepared with buffer from the last step of protein dialysis. The samples were filtered and degassed before being examined in the calorimeter and the titrations were performed 25° C. All the experiments consisted of injection of constant volumes of 2 μL of titrant into the cell (200 μL) with a stirring rate of 75 rpm. Nominal sample concentrations were between 20 μM and 40 μM in the cell and 400 μM to 1.0 mM in the syringe. Actual sample concentrations were determined after dialysis or buffer exchange by measurement of their absorption at 280 nm or the BCA method. All data were analyzed using the MicroCal Origin ITC 7.0, and NanoAnalyze software packages.

HA-Reck = molecular target: T1, HA-Reck (Homo sapiens, UniProt O95980); test: Proximity ligation assay (PLA), anti-V5/anti-HA, V5-tagged Wnt ligand and HA-Reck in GPR124−/−;RECK−/− cells; format: cell-based; conditions: GPR124−/−;RECK−/− cells co-expressing HA-Reck
T1 construct: expressed in transfected cells; host or cells: GPR124-/-;RECK-/- HEK293 (STF) cells, pCS2 / CMV promoter
T1 sequence (O95980 23-942): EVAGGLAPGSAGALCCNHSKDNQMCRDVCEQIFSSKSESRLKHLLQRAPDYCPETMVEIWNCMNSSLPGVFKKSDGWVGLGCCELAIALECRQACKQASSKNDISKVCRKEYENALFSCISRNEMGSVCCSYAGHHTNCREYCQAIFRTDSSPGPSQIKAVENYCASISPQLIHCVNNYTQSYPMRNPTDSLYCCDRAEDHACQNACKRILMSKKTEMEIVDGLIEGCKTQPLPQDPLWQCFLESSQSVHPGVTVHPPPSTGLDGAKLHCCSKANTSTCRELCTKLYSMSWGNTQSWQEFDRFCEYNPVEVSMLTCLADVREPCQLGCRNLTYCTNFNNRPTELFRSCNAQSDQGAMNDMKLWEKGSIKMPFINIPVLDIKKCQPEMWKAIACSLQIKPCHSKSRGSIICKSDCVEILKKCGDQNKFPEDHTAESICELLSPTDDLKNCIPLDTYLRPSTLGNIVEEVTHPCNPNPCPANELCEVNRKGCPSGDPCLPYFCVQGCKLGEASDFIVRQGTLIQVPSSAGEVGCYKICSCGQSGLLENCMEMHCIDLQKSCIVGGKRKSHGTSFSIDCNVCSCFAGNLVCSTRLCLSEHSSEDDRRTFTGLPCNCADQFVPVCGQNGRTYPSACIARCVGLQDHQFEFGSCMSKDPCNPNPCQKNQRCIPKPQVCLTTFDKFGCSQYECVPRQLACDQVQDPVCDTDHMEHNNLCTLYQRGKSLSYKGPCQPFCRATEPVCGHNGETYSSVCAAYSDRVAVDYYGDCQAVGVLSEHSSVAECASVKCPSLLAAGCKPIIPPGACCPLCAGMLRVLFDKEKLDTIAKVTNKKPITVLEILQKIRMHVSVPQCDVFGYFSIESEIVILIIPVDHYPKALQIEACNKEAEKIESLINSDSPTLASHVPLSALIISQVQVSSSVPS
Description: (§1) 1.7. Immunofluorescence and Proximity Ligation Assay Cells were grown in glass-coated chambers (IBIDI, Martinsried, Germany) and transfected after 24 h with Lipofectamine 2000 (Life Technologies, Carlsbad, Calif.). Cells were fixed with 4% paraformaldehyde for 10 min at room temperature (RT) 48 h post transfection. For immunofluorescence staining (IF), cells were blocked in 1% BSA-PBS for 30 min before being exposed to primary antibodies for 1 h at RT. After three PBS washes, cells were incubated with secondary antibodies for 1 h at RT. For anti-V5 staining of Wnt ligands, cells were additionally washes for 10 min in PBS 0.1% Tween 20 before incubation with the secondary antibody solution. For the proximity ligation assay (PLA) (Sigma-Aldrich, St. Louis, Mo.), cells were blocked for 30 min at 37° C. with the Blocking solution provided by the manufacturer before being incubated with the primary antibodies for 1 h at RT. Cells were washed three times and incubated with the PLA probes anti-rabbit PLUS and anti-mouse MINUS for 1 h at 37° C. After two PBS washes, cells were incubated with the Duolink Ligation solution for 30 min at 37° C. After two PBS washes, cells were incubated with the Duolink Amplification solution for 100 min at 37° C. The following antibodies were used: mouse monoclonal anti-V5 (R96025, Life Technologies, Carlsbad, Calif.) at 1:500 for IF and PLA, purified polyclonal rabbit anti-HA (H6908, St. Louis, Mo.) at 1:400 for IF and PLA and anti-mouse Alexa488-conjugated secondary antibody (Thermo Fisher Scientific, Waltham, Mass.) at 1:5000. Cells were stained for 2 min with Hoechst diluted to 10 μg ml-1 in PBS.
Cells and zebrafish embryos were imaged with an LSM710 confocal microscope and images were processed in ImageJ. Images of eye fusion phenotypes were taken on Leica M165 FC. Representations of brain vasculature were generated using Imaris software (BitPlane, Zurich, Switzerland). The percentage of PLA positive (PLA+) areas and DAPI positive (DAPI+) areas were calculated using ImageJ on images containing about 50 to 100 cells. The PLA+ area was measured after manually applying a fixed threshold. The DAPI+ area was measured after applying the “default” thresholding method in Image J.

[1] = test system: plasma membrane of HEK293 cells; test: Anti-V5 immunostaining of transiently expressed V5-tagged Wnt ligands in non-permeabilized cells; format: cell-based, human
Description: as §1, with “After two PBS washes, cells were incubated with the Duolink Amplification solution for 100 min at 37° C. The following antibodies were used: mouse monoclonal anti-V5 (R96025, Life Technologies, Carlsbad, Calif.) at 1:500 for IF and PLA, purified polyclonal rabbit anti-HA (H6908, St. Louis, Mo.) at 1:400 for IF and PLA and anti-mouse Alexa488-conjugated secondary antibody (Thermo Fisher Scientific, Waltham, Mass.) at 1:5000. Cells were stained for 2 min with Hoechst diluted to 10 μg ml-1 in PBS.” left out
It was determined how Wnt7 is specifically recognized within this signaling module, a question inherently complicated by the ubiquitous expression of Frizzled receptors and their Lrp5/6 co-receptors in vertebrate cells. […]

Question: How did the Kd (Reck-CK-Fc; 25° C., Tris-NaCl buffer pH8, read-out: affinity of binding to Reck (ITC)) turn out when VEVVRASRLRQPTFLRIKQLRSYQKPMET [pWnt7b] was run?
Answer: 1200 nM

Question: And the “Reck CK motifs required for binding (ITC with Reck-CK-Fc deletion variants)” value (Reck-CK-Fc; Reck-CK^ΔCK1-Fc to Reck-CK^ΔCK5-Fc)?
Answer: required Reck CK4 and CK5, but not CK1, CK2 and CK3

Question: With “pWnt3a: control equivalent linker peptide of Wnt3a (MVVEKHRESRGWVETLRPRYTYFKVPTER) [reference compound]” as the molecule, how does the “binding to Reck-CK-Fc (ITC)” value (Reck-CK-Fc; 25° C.) read?
Answer: no binding

B1: Wnt7a^1-212: smaller NTD variant lacking the linker region (protein)
chain: LGASIICNKIPGLAPRQRAICQSRPDAIIVIGEGSQMGLDECQFQFRNGRWNCSALGERTVFGKELKVGSREAAFTYAIIAAGVAHAITAACTQGNLSDCGCDKEKQGQYHRDEGWKWGGCSADIRYGIGFAKVFVDAREIKQNARTLMNLHNNEAGRKILEENMKLECKCHGVSGSCTTK
modifications: left off: small tags and cut ends
notes: smaller NTD variant lacking the linker region
Question: With B1 as the molecule, how does the “Reck binding (anti-V5/anti-HA PLA signal)” value (from here on “Reck binding”) (HA-Reck) read?
Answer: did not bind Reck

B2: Wnt7a-V5: V5-tagged Wnt7a ligand transiently expressed in cells (protein)
chain: LGASIICNKIPGLAPRQRAICQSRPDAIIVIGEGSQMGLDECQFQFRNGRWNCSALGERTVFGKELKVGSREAAFTYAIIAAGVAHAITAACTQGNLSDCGCDKEKQGQYHRDEGWKWGGCSADIRYGIGFAKVFVDAREIKQNARTLMNLHNNEAGRKILEENMKLECKCHGVSGSCTTKTCWTTLPQFRELGYVLKDKYNEAVHVEPVRASRNKRPTFLKIKKPLSYRKPMDTDLVYIEKSPNYCEEDPVTGSVGTQGRACNKTAPQASGCDLMCCGRGYNTHQYARVWQCNCKFHWCCYVKCNTCSERTEMYTCK
modifications: left off: small tags and cut ends
notes: V5-tagged Wnt7a ligand transiently expressed in cells
Question: B2 was tested. Which “immunodetection at the plasma membrane” value ([1]; GPR124−/−;RECK−/− cells) did it give?
Answer: not at those of GPR124^−/−;RECK^−/− cells

Question: And the “immunodetection at the plasma membrane” value ([1]; WT, FZ1-10−/− and LRP5−/−;LRP6−/− cells)?
Answer: could be immunodetected at the plasma membrane

B3: Wnt7a^S206A: mutant Wnt7a incapable of being palmitoylated at Serine 206 (protein)
chain: LGASIICNKIPGLAPRQRAICQSRPDAIIVIGEGSQMGLDECQFQFRNGRWNCSALGERTVFGKELKVGSREAAFTYAIIAAGVAHAITAACTQGNLSDCGCDKEKQGQYHRDEGWKWGGCSADIRYGIGFAKVFVDAREIKQNARTLMNLHNNEAGRKILEENMKLECKCHGVAGSCTTKTCWTTLPQFRELGYVLKDKYNEAVHVEPVRASRNKRPTFLKIKKPLSYRKPMDTDLVYIEKSPNYCEEDPVTGSVGTQGRACNKTAPQASGCDLMCCGRGYNTHQYARVWQCNCKFHWCCYVKCNTCSERTEMYTCK
modifications: left off: small tags and cut ends
Question: Which “Reck binding” value (HA-Reck) does the source give for B3 here?
Answer: bound Reck efficiently

B4: Wnt7a′: garbled label of a Wnt7a domain variant, probably the C-terminal domain alone (protein)
chain: LGASIICNKIPGLAPRQRAICQSRPDAIIVIGEGSQMGLDECQFQFRNGRWNCSALGERTVFGKELKVGSREAAFTYAIIAAGVAHAITAACTQGNLSDCGCDKEKQGQYHRDEGWKWGGCSADIRYGIGFAKVFVDAREIKQNARTLMNLHNNEAGRKILEENMKLECKCHGVSGSCTTKTCWTTLPQFRELGYVLKDKYNEAVHVEPVRASRNKRPTFLKIKKPLSYRKPMDTDLVYIEKSPNYCEEDPVTGSVGTQGRACNKTAPQASGCDLMCCGRGYNTHQYARVWQCNCKFHWCCYVKCNTCSERTEMYTCK
Question: How did the “Reck binding” value (HA-Reck) turn out when B4 was run?
Answer: did not

B5: Wnt71-237: smaller NTD variant lacking the linker region (protein)
chain: LGASIICNKIPGLAPRQRAICQSRPDAIIVIGEGSQMGLDECQFQFRNGRWNCSALGERTVFGKELKVGSREAAFTYAIIAAGVAHAITAACTQGNLSDCGCDKEKQGQYHRDEGWKWGGCSADIRYGIGFAKVFVDAREIKQNARTLMNLHNNEAGRKILEENMKLECKCHGVSGSCTTKTCWTTLPQFRELGYVLKDKYNEAVH
modifications: left off: small tags and cut ends
notes: as for B1
Question: How did the “Reck binding” value (HA-Reck) turn out when B5 was run?
Answer: did not bind Reck
